Assay results taken from article PMC7098653.

Assays:
[1] = target: LysIME-EF1 CBD (residues 168-237) with an N-terminal 6xHis-tag (E. faecalis phage); assay: SEC; single purified CBD proteins; Superdex 200, 20 mM Tris-HCl pH 8.0, 150 mM NaCl, 0.5 ml/min, 16°C
[2] = target: truncated LysIME-EF1 CBD fragment (8 kDa), product of the internal translation start at M168 (E. faecalis phage); assay: crystal structure; LysIME-EF1 CBD, space group I422, 1.75 Å, one molecule in the asymmetric unit, tetramer by crystallographic symmetry (PDB 6L00)
[3] = target: full-length LysIME-EF1 (wild type), N-terminally 6xHis-tagged (E. faecalis phage); assay: crystal structure; Se-Met WT LysIME-EF1, space group P12(1)1, 1.75 Å, Se-SAD (PDB 6IST)

stoichiometry N [1]	stoichiometry N [2]	stoichiometry N [3]	Substance
4	–	–	LysIME-EF1 CBD (residues 168-237) with an N-terminal 6xHis-tag (domain or fragment)
–	4	3	truncated LysIME-EF1 CBD fragment (8 kDa), product of the internal translation start at M168 (domain or fragment)
